# Paper PMC8173604 (Cell, 2021)
# Target: purified HLA-A*02:01 MHC molecule (human | )
# Test: radioligand binding
row,Binder,IC50
1,"MLLGSMLYM [MLLGSMLYM, HLA-I peptide from S.iORF1/2]",< 500 pM
2,"GLITLSYHL [GLITLSYHL, HLA-I peptide from S.iORF1/2]",< 500 pM
